Our source for the binding signal (frequency ratio score) values is PMC5024299.

The series concerns Pho4 (Saccharomyces cerevisiae). Nature of the series: SELMAP (microfluidic SELEX-seq). The following applies: last round; On-chip SELMAP: 71-bp dsDNA library (20 ul, 50 uM) flowed 20 min over immobilised TF, MITOMI trapping, DNase 200 U/mL, PBS wash; binding buffer, pH and ….

On to “Pho4 consensus 6-mer CACGTG in 12-mer library”, for which the binding signal (frequency ratio score) worked out at 220.
